Laboratory results published in paper PMC8705818, “Experimental Characterization of the Interaction between the N-Terminal SH3 Domain of Crkl and C3G” (International Journal of Molecular Sciences, 2021).
Blank lines part the entries; values can stand above or below the molecule they belong to. Ends that are not written are not given here. * marks the point of attachment. Dansyl = CN(C)c1cccc2c(S(=O)(=O)*)cccc12

How the values were obtained:
[1] = biological target: dansyl-C3G277-296 peptide (UniProt Q13905); assay: Stopped-flow fluorescence kinetics (FRET Trp to dansyl). kon from binding, koff from displacement, KD = koff/kon.; conditions: pH 7.0, 10 °C, Hepes 50 mM pH 7.0
[2] = biological target: dansyl-C3G277-296 peptide (UniProt Q13905); assay: Stopped-flow fluorescence kinetics (FRET from Trp164/Trp165 to dansyl; excitation 280 nm, 455 nm cut-off filter). kon from binding experiments, koff from separate displacement experiments, KD = koff/k; conditions: 10 °C, 0.5 M NaCl added to all buffers, 50 mM sodium acetate at pH 5.0 and 5.5, 50 mM Bis-Tris at pH 6.0 and 6.5, 50 mM Hepes at pH 7.0 and 7.5, 50 mM Tris-HCl
[3] = biological target: dansylated C3G_(277–296) peptide; assay: stopped-flow kinetics (FRET, Trp to dansyl); variants, ionic strength series: 0.5 µM dansyl peptide mixed with N-SH3 variant (D138A 2.5-6.0 µM, E140A 3.0-5.5 µM); KD = koff/kon; 50 mM Hepes pH 7.5, 0.15 M NaCl, 10 °C
[4] = biological target: dansylated C3G_(277–296) peptide; assay: stopped-flow kinetics (FRET, Trp to dansyl); variants, ionic strength series: 0.5 µM dansyl peptide mixed with N-SH3 variant (D138A 2.5-6.0 µM, E140A 3.0-5.0 µM); KD = koff/kon; 50 mM Hepes pH 7.5, 0.1 M NaCl, 10 °C
[5] = biological target: dansylated C3G_(277–296) peptide; assay: stopped-flow kinetics (FRET, Trp to dansyl); variants, ionic strength series: 0.5 µM dansyl peptide mixed with 2.0-4.5 µM N-SH3 variant; KD = koff/kon; 50 mM Hepes pH 7.5, 0 M NaCl, 10 °C
[6] = biological target: dansylated C3G_(277–296) peptide; assay: stopped-flow kinetics (FRET, Trp to dansyl); variants, ionic strength series: 0.5 µM dansyl peptide mixed with N-SH3 variant (D138A 2.5-6.0 µM, E140A 3.0-5.5 µM); KD = koff/kon; 50 mM Hepes pH 7.5, 0.05 M NaCl, 10 °C
[7] = biological target: dansylated C3G_(277–296) peptide; assay: stopped-flow displacement kinetics; preincubated complex of D141A N-SH3 (2 µM) and dansyl-C3G (10 µM) mixed with excess nondansylated C3G (50 µM); Hepes 50 mM pH 7.0 with 20% w/v sucrose
[8] = biological target: dansylated C3G_(277–296) peptide; assay: stopped-flow kinetics (FRET, Trp to dansyl); pH series: 0.5 µM dansyl peptide mixed with 2.0-7.0 µM N-SH3; koff from displacement; 50 mM sodium acetate pH 5.5, 0.5 M NaCl, 10 °C
[9] = biological target: dansylated C3G_(277–296) peptide; assay: stopped-flow kinetics (FRET, Trp to dansyl); pH series: 0.5 µM dansyl peptide mixed with 0.5-5.0 µM N-SH3; koff from displacement; Hepes 50 mM pH 7.5, 0.5 M NaCl, 10 °C
[10] = biological target: dansylated C3G_(277–296) peptide; assay: stopped-flow kinetics (FRET, Trp to dansyl); pH series: 0.5 µM dansyl peptide mixed with 4.0-8.0 µM N-SH3; koff from displacement; 50 mM sodium acetate pH 5.0, 0.5 M NaCl, 10 °C
[11] = biological target: dansylated C3G_(277–296) peptide; assay: stopped-flow kinetics (FRET, Trp to dansyl); pH series: 0.5 µM dansyl peptide mixed with 1.5-6.0 µM N-SH3; koff from displacement; Tris-HCl 50 mM pH 8.5, 0.5 M NaCl, 10 °C
[12] = biological target: dansylated C3G_(277–296) peptide; assay: stopped-flow kinetics (FRET, Trp to dansyl); pH series: 0.5 µM dansyl peptide mixed with 1.5-6.0 µM N-SH3; koff from displacement; Tris-HCl 50 mM pH 8.0, 0.5 M NaCl, 10 °C
[13] = biological target: dansylated C3G_(277–296) peptide; assay: stopped-flow kinetics (FRET, Trp to dansyl); ionic strength series: 0.5 µM dansyl peptide mixed with 0.5-5 µM N-SH3; koff from displacement; KD = koff/kon; Hepes 50 mM pH 7.0, 0.3 M NaCl, 10 °C
[14] = biological target: dansylated C3G_(277–296) peptide; assay: stopped-flow kinetics (FRET, Trp to dansyl); pH series: 0.5 µM dansyl peptide mixed with 1.0-5.0 µM N-SH3; koff from displacement; Bis-Tris 50 mM pH 6.0, 0.5 M NaCl, 10 °C
[15] = biological target: dansylated C3G_(277–296) peptide; assay: stopped-flow kinetics (FRET, Trp to dansyl); ionic strength series: 0.5 µM dansyl peptide mixed with 0.5-5 µM N-SH3; koff from displacement; KD = koff/kon; Hepes 50 mM pH 7.0, 1 M NaCl, 10 °C
[16] = biological target: dansylated C3G_(277–296) peptide; assay: stopped-flow kinetics (FRET, Trp to dansyl); ionic strength series: 0.5 µM dansyl peptide mixed with 0.5-5 µM N-SH3; koff from displacement; KD = koff/kon; Hepes 50 mM pH 7.0, 0.5 M NaCl, 10 °C
[17] = biological target: dansylated C3G_(277–296) peptide; assay: stopped-flow kinetics (FRET, Trp to dansyl); pH series: 0.5 µM dansyl peptide mixed with 0.5-5.0 µM N-SH3; koff from displacement; Bis-Tris 50 mM pH 6.5, 0.5 M NaCl, 10 °C
[18] = biological target: dansylated C3G_(277–296) peptide; assay: stopped-flow kinetics (FRET, Trp to dansyl); pH series: 0.5 µM dansyl peptide mixed with 1.5-6.0 µM N-SH3; koff from displacement; Tris-HCl 50 mM pH 9.0, 0.5 M NaCl, 10 °C
[19] = biological target: dansylated C3G_(277–296) peptide; assay: stopped-flow kinetics (FRET, Trp to dansyl); ionic strength series: 0.5 µM dansyl peptide mixed with 1-5 µM N-SH3; koff from displacement with excess nondansylated peptide; KD = koff/kon; Hepes 50 mM pH 7.0, 0 M NaCl, 10 °C
[20] = biological target: dansylated C3G_(277–296) peptide; assay: stopped-flow kinetics (FRET, Trp to dansyl); pH series: 0.5 µM dansyl peptide mixed with 1.5-6.0 µM N-SH3; koff from displacement; Hepes 50 mM pH 7.0, 0.5 M NaCl, 10 °C
[21] = biological target: dansylated C3G_(277–296) peptide; assay: stopped-flow kinetics (FRET, Trp to dansyl); ionic strength series: 0.5 µM dansyl peptide mixed with 0.5-5 µM N-SH3; koff from displacement; KD = koff/kon; Hepes 50 mM pH 7.0, 0.15 M NaCl, 10 °C
[22] = biological target: N-SH3 domain of Crkl, D141A variant; assay: other fluorescence titration; equilibrium: 1 µM N-SH3 D141A constant, increasing dansyl-C3G; quenching of Trp fluorescence at 350 nm (excitation 280 nm); hyperbolic fit; 50 mM Hepes pH 7.0, 10 °C

- koff ([1]; 0 M NaCl added): 12 s⁻¹
- kon ([1]; 0 M NaCl added): 1.3e+08 M⁻¹ s⁻¹
- koff ([1]; 0.15 M NaCl): 23 s⁻¹
- kon ([1]; 0.15 M NaCl): 9.6e+07 M⁻¹ s⁻¹
- koff ([1]; 0.3 M NaCl): 32 s⁻¹
- kon ([1]; 0.3 M NaCl): 8.3e+07 M⁻¹ s⁻¹
- koff ([1]; 0.5 M NaCl): 34 s⁻¹
- kon ([1]; 0.5 M NaCl): 5.1e+07 M⁻¹ s⁻¹
- koff ([1]; 1.0 M NaCl): 51 s⁻¹
- kon ([1]; 1.0 M NaCl): 6.8e+07 M⁻¹ s⁻¹
- koff ([2]; pH 5.0): 257 s⁻¹
- kon ([2]; pH 5.0): 4.4e+07 M⁻¹ s⁻¹
- koff ([2]; pH 5.5): 81 s⁻¹
- kon ([2]; pH 5.5): 3.7e+07 M⁻¹ s⁻¹
- koff ([2]; pH 6.0): 78 s⁻¹
- kon ([2]; pH 6.0): 1.5e+07 M⁻¹ s⁻¹
- koff ([2]; pH 6.5): 65 s⁻¹
- kon ([2]; pH 6.5): 6.5e+07 M⁻¹ s⁻¹
- koff ([2]; pH 7.0): 42 s⁻¹
- kon ([2]; pH 7.0): 5.2e+07 M⁻¹ s⁻¹
- koff ([2]; pH 7.5): 34 s⁻¹
- kon ([2]; pH 7.5): 5.1e+07 M⁻¹ s⁻¹
- koff ([2]; pH 8.0): 46 s⁻¹
- kon ([2]; pH 8.0): 5.6e+07 M⁻¹ s⁻¹
- koff ([2]; pH 8.5): 40 s⁻¹
- kon ([2]; pH 8.5): 6.8e+07 M⁻¹ s⁻¹
- koff ([2]; pH 9.0): 39 s⁻¹
- kon ([2]; pH 9.0): 3.9e+07 M⁻¹ s⁻¹
Molecule: Crkl N-terminal SH3 domain (N-SH3), wild type

- Kd [3]: 22 µM
- koff [3]: 254 s⁻¹
- kon [3]: 1.2e+07 M⁻¹ s⁻¹
- Kd [4]: 3.8 µM
- koff [4]: 183 s⁻¹
- kon [4]: 4.8e+07 M⁻¹ s⁻¹
- Kd [5]: 0.9 µM
- koff [5]: 139 s⁻¹
- kon [5]: 1.58e+08 M⁻¹ s⁻¹
- Kd [6]: 2.6 µM
- koff [6]: 212 s⁻¹
- kon [6]: 8.1e+07 M⁻¹ s⁻¹
Molecule: N-SH3 domain of Crkl, D138A variant (domain or fragment)

- koff [7]: 800 s⁻¹
Molecule: N-SH3 domain of Crkl, D141A variant (domain or fragment)

- Kd [3]: 4.2 µM
- koff [3]: 339 s⁻¹
- kon [3]: 8.1e+07 M⁻¹ s⁻¹
- Kd [4]: 3.9 µM
- koff [4]: 302 s⁻¹
- kon [4]: 7.7e+07 M⁻¹ s⁻¹
- Kd [5]: 3.3 µM
- koff [5]: 254 s⁻¹
- kon [5]: 7.8e+07 M⁻¹ s⁻¹
- Kd [6]: 3.7 µM
- koff [6]: 330 s⁻¹
- kon [6]: 8.9e+07 M⁻¹ s⁻¹
Molecule: N-SH3 domain of Crkl, E140A variant (domain or fragment)

- Kd [8]: 2.2 µM
- koff [8]: 81 s⁻¹
- kon [8]: 3.7e+07 M⁻¹ s⁻¹
- Kd [9]: 0.7 µM
- koff [9]: 34 s⁻¹
- kon [9]: 5.1e+07 M⁻¹ s⁻¹
- Kd [10]: 5.9 µM
- koff [10]: 257 s⁻¹
- kon [10]: 4.4e+07 M⁻¹ s⁻¹
- Kd [11]: 0.6 µM
- koff [11]: 40 s⁻¹
- kon [11]: 6.8e+07 M⁻¹ s⁻¹
- Kd [12]: 0.8 µM
- koff [12]: 46 s⁻¹
- kon [12]: 5.6e+07 M⁻¹ s⁻¹
- Kd [13]: 0.39 µM
- koff [13]: 32 s⁻¹
- kon [13]: 8.3e+07 M⁻¹ s⁻¹
- Kd [14]: 5.4 µM
- koff [14]: 78 s⁻¹
- kon [14]: 1.5e+07 M⁻¹ s⁻¹
- Kd [15]: 0.75 µM
- koff [15]: 51 s⁻¹
- kon [15]: 6.8e+07 M⁻¹ s⁻¹
- Kd [16]: 0.66 µM
- koff [16]: 34 s⁻¹
- kon [16]: 5.1e+07 M⁻¹ s⁻¹
- Kd [17]: 1 µM
- koff [17]: 65 s⁻¹
- kon [17]: 6.5e+07 M⁻¹ s⁻¹
- Kd [18]: 1 µM
- koff [18]: 39 s⁻¹
- kon [18]: 3.9e+07 M⁻¹ s⁻¹
- Kd [19]: 0.09 µM
- koff [19]: 12 s⁻¹
- kon [19]: 1.3e+08 M⁻¹ s⁻¹
- Kd [20]: 0.8 µM
- koff [20]: 42 s⁻¹
- kon [20]: 5.2e+07 M⁻¹ s⁻¹
- Kd [21]: 0.24 µM
- koff [21]: 23 s⁻¹
- kon [21]: 9.6e+07 M⁻¹ s⁻¹
Molecule: N-terminal SH3 domain of Crkl, wild type (domain or fragment)

- Kd [22]: 1.07 µM
Molecule: Dansyl-VVDNSPPPALPPKKRQSAPS [dansylated C3G_(277–296) peptide]
